Target: cysteine-free green-absorbing Proteorhodopsin
Assay: cross-linking

“cysteine-free green-absorbing Proteorhodopsin (natural protein)” gave a stoichiometry N of 6.

Source: publication PMC4374980
